According to patent US20250026842A1:

Key:
[1] = target: human 4-1BB on the surface of HEK293-Hu4-1BB cells (human) (UniProt Q07011); test: cell-based or functional assay
[2] = target: human 4-1BB on the surface of HEK293-Hu4-1BB cells (human) (UniProt Q07011); test: FACS on HEK293 cells highly expressing human 4-1BB

Sequence of human 4-1BB on the surface of HEK293-Hu4-1BB cells (human) (Q07011 24-255): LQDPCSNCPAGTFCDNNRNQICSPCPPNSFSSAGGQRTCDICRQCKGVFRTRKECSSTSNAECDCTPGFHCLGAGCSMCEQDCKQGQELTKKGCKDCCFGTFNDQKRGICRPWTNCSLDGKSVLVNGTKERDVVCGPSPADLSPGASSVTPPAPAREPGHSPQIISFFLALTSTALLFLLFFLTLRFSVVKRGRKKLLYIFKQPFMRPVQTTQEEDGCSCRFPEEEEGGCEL

- Emax, 4-1BB/NF-κB luciferase reporter, FcγRIIb cross-linking (relative to antibody-free group) [1]: 1.12
- Emax, 4-1BB/NF-κB luciferase reporter, no FcγRIIb cross-linking (relative to antibody-free group) [1]: 1.1
- Maximal fluorescence value [2]: 67
Substance: isotype IgG1 antibody
